The results in this text go back to the supplement of paper PMC5998384.

In data set [1] the test system is HeLa Kyoto. In words: solubility in G1/S (NP-40 vs SDS abundance) (log2 ratio); higher = more soluble. To be noted: cell cycle stage: G1/S.
The test system of data set [2] is HeLa Kyoto. The experiment in a line: solubility change mitosis vs G1/S (difference of NP-40 vs SDS log2 ratios) (log2 ratio difference); higher = more soluble in mitosis.
In data set [3] the test system is HeLa Kyoto. The experiment in a line: melting temperature (median over replicates), in situ; higher = more thermally stable.
Data set [4] concerns HeLa Kyoto. The experiment in a line: thermal stability score vs G1/S (z-score of summed log2 fold changes over temperatures); higher = more thermally stable than in G1/S.
The mark [5] stands for this setting: cell cycle stage: early G1 (4.5 h after nocodazole release).
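Wherever melting temperature (median over replicates), in situ is given: HeLa Kyoto cells synchronized by double thymidine or nocodazole block, proteins quantified by TMT10plex mass spectrometry, three independent biological replicates.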
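Wherever solubility change mitosis vs G1/S (difference of NP-40 vs SDS log2 ratios) is given: synchronized HeLa Kyoto cells (double thymidine block for G1/S, nocodazole release for mitosis), protein amounts in NP-40 versus SDS lysates quantified by mass spectrometry, three biological replicates.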
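Wherever solubility in G1/S (NP-40 vs SDS abundance) is given: HeLa Kyoto cells arrested at G1/S by double thymidine block, proteins quantified by TMT10plex mass spectrometry in mild NP-40 versus SDS extracts, three biological replicates.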
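Wherever thermal stability score vs G1/S (z-score of summed log2 fold changes over temperatures) is given: synchronized HeLa Kyoto cells, proteins quantified by TMT10plex mass spectrometry, three biological replicates, mitosis taken 0.5 h after nocodazole release, G1/S directly after double thymidine block.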

Turning to “MATTATCTRFTDDYQLFEELGKGAFSVVRRCVKKTSTQEYAAKIINTKKLSARDHQKLEREARICRLLKHPNIVRLHDSISEEGFHYLVFDLVTGGELFEDIVAREYYSEADASHCIHQILESVNHIHQHDIVHRDLKPENLLLASKCKGAAVKLADFGLAIEVQGEQQAWFGFAGTPGYLSPEVLRKDPYGKPVDIWACGVILYILLVGYPPFWDEDQHKLYQQIKAGAYDFPSPEWDTVTPEAKNLINQMLTINPAKRITADQALKHPWVCQRSTVASMMHRQETVECLRKFNARRKLKGAILTTMLVSRNFSAAKSLLNKKSDGGVKKRKSSSSVHLMPQSNNKNSLVSPAQEPAPLQTAMEPQTTVVHNATDGIKGSTESCNTTTEDEDLKGRVPEGRSSRDRTAPSAGMQPQPSLCSSAMRKQEIIKITEQLIEAINNGDFEAYTKICDPGLTSFEPEALGNLVEGMDFHKFYFENLLSKNSKPIHTTILNPHVHVIGEDAACIAYIRLTQYIDGQGRPRTSQSEETRVWHRRDGKWLNVHYHCSGAPAAPLQ [CAMK2G]”, in the data set with HeLa Kyoto [1], the “solubility in G1/S (log2)” value was -0.382. For the same sequence, in the data set on HeLa Kyoto [2], the “solubility change mitosis (log2)” value was 0.162. For the same sequence, the melting temperature was 49.6 °C with HeLa Kyoto [3] (cell cycle stage: G1/S) and 48.9 °C in the data set with HeLa Kyoto [3] (cell cycle stage: mitosis). Also, the thermal stability score is -0.442 with HeLa Kyoto [4] (setting [5]) and -0.0382 with HeLa Kyoto [4] (cell cycle stage: mitosis).

“MATTGTPTADRGDAAATDDPAARFQVQKHSWDGLRSIIHGSRKYSGLIVNKAPHDFQFVQKTDESGPHSHRLYYLGMPYGSRENSLLYSEIPKKVRKEALLLLSWKQMLDHFQATPHHGVYSREEELLRERKRLGVFGITSYDFHSESGLFLFQASNSLFHCRDGGKNGFMVSPMKPLEIKTQCSGPRMDPKICPADPAFFSFINNSDLWVANIETGEERRLTFCHQGLSNVLDDPKSAGVATFVIQEEFDRFTGYWWCPTASWEGSEGLKTLRILYEEVDESEVEVIHVPSPALEERKTDSYRYPRTGSKNPKIALKLAEFQTDSQGKIVSTQEKELVQPFSSLFPKVEYIARAGWTRDGKYAWAMFLDRPQQWLQLVLLPPALFIPSTENEEQRLASARAVPRNVQPYVVYEEVTNVWINVHDIFYPFPQSEGEDELCFLRANECKTGFCHLYKVTAVLKSQGYDWSEPFSPGEDEFKCPIKEEIALTSGEWEVLARHGSKIWVNEETKLVYFQGTKDTPLEHHLYVVSYEAAGEIVRLTTPGFSHSCSMSQNFDMFVSHYSSVSTPPCVHVYKLSGPDDDPLHKQPRFWASMMEAASCPPDYVPPEIFHFHTRSDVRLYGMIYKPHALQPGKKHPTVLFVYGGPQVQLVNNSFKGIKYLRLNTLASLGYAVVVIDGRGSCQRGLRFEGALKNQMGQVEIEDQVEGLQFVAEKYGFIDLSRVAIHGWSYGGFLSLMGLIHKPQVFKVAIAGAPVTVWMAYDTGYTERYMDVPENNQHGYEAGSVALHVEKLPNEPNRLLILHGFLDENVHFFHTNFLVSQLIRAGKPYQLQIYPNERHSIRCPESGEHYEVTLLHFLQEYL [DPP9]”: the “solubility in G1/S (log2)” value with HeLa Kyoto [1] was -0.0578. In the data set on HeLa Kyoto [2], the “solubility change mitosis (log2)” value is -0.171. The values for the melting temperature with HeLa Kyoto [3] (cell cycle stage: G1/S) and with HeLa Kyoto [3] (cell cycle stage: mitosis) were 51.3 °C and 51.1 °C, respectively. Moreover, the thermal stability score is -0.344 with HeLa Kyoto [4] (setting [5]) and -0.63 in the data set with HeLa Kyoto [4] (cell cycle stage: mitosis).

Take “MAVADLALIPDVDIDSDGVFKYVLIRVHSAPRSGAPAAESKEIVRGYKWAEYHADIYDKVSGDMQKQGCDCECLGGGRISHQSQDKKIHVYGYSMAYGPAQHAISTEKIKAKYPDYEVTWANDGY [PHPT1]”: the “solubility in G1/S (log2)” value with HeLa Kyoto [1] turned out to be 0.345. For the same sequence, in the data set with HeLa Kyoto [2], the “solubility change mitosis (log2)” value came to 0.028. In addition, the melting temperature in the data set on HeLa Kyoto [3] (cell cycle stage: G1/S) amounted to 52.9 °C; in the data set on HeLa Kyoto [3] (cell cycle stage: mitosis), 53.5 °C. Besides, the thermal stability score is -0.712 in the data set with HeLa Kyoto [4] (setting [5]) and -1.99 in the data set with HeLa Kyoto [4] (cell cycle stage: mitosis).

Take “MAVARVDAALPPGEGSVVNWSGQGLQKLGPNLPCEADIHTLILDKNQIIKLENLEKCKRLIQLSVANNRLVRMMGVAKLTLLRVLNLPHNSIGCVEGLKELVHLEWLNLAGNNLKAMEQINSCTALQHLDLSDNNISQIGDLSKLVSLKTLLLHGNIITSLRMAPAYLPRSLAILSLAENEIRDLNEISFLASLTELEQLSIMNNPCVMATPSIPGFDYRPYIVSWCLNLRVLDGYVISQKESLKAEWLYSQGKGRAYRPGQHIQLVQYLATVCPLTSTLGLQTAEDAKLEKILSKQRFHQRQLMNQSQNEELSPLVPVETRASLIPEHSSPVQDCQISQESEPVIQVNSWVGINSNDDQLFAVKNNFPASVHTTRYSRNDLHLEDIQTDEDKLNCSLLSSESTFMPVASGLSPLSPTVELRLQGINLGLEDDGVADESVKGLESQVLDKEEEQPLWAANENSVQMMRSEINTEVNEKAGLLPCPEPTIISAILKDDNHSLTFFPESTEQKQSDIKKPENTQPENKETISQATSEKLPMILTQRSVALGQDKVALQKLNDAATKLQACWRGFYARNYNPQAKDVRYEIRLRRMQEHIVCLTDEIRRLRKERDEERIKKFVQEEAFRFLWNQVRSLQVWQQTVDQRLSSWHTDVPPISSTLVPSKHPLFTQSQESSCDQNADWFIASDVAPQEKSLPEFPDSGFHSSLTEQVHSLQHSLDFEKSSTEGSESSIMGNSIDTVRYGKESDLGDVSEEHGEWNKESSNNEQDNSLLEQYLTSVQQLEDADERTNFDTETRDSKLHIACFPVQLDTLSDGASVDESHGISPPLQGEISQTQENSKLNAEVQGQQPECDSTFQLLHVGVTV [CEP97]”: the “solubility in G1/S (log2)” value with HeLa Kyoto [1] is 0.0763. In addition, the “solubility change mitosis (log2)” value in the data set with HeLa Kyoto [2] was -0.207. The values for the melting temperature in the data set with HeLa Kyoto [3] (cell cycle stage: G1/S) and in the data set on HeLa Kyoto [3] (cell cycle stage: mitosis) were 49.6 °C and 49.9 °C, respectively. Moreover, the thermal stability score was found to be 0.503 in the data set with HeLa Kyoto [4] (setting [5]) and 1.24 in the data set with HeLa Kyoto [4] (cell cycle stage: mitosis).

Regarding “MAVAVAMAGALIGSEPGPAEELAKLEYLSLVSKVCTELDNHLGINDKDLAEFVISLAEKNTTFDTFKASLVKNGAEFTDSLISNLLRLIQTMRPPAKPSTSKDPVVKPKTEKEKLKELFPVLCQPDNPSVRTMLDEDDVKVAVDVLKELEALMPSAAGQEKQRDAEHRDRTKKKKRSRSRDRNRDRDRDRERNRDRDHKRRHRSRSRSRSRTRERNKVKSRYRSRSRSQSPPKDRKDRDKYGERNLDRWRDKHVDRPPPEEPTIGDIYNGKVTSIMQFGCFVQLEGLRKRWEGLVHISELRREGRVANVADVVSKGQRVKVKVLSFTGTKTSLSMKDVDQETGEDLNPNRRRNLVGETNEETSMRNPDRPTHLSLVSAPEVEDDSLERKRLTRISDPEKWEIKQMIAANVLSKEEFPDFDEETGILPKVDDEEDEDLEIELVEEEPPFLRGHTKQSMDMSPIKIVKNPDGSLSQAAMMQSALAKERRELKQAQREAEMDSIPMGLNKHWVDPLPDAEGRQIAANMRGIGMMPNDIPEWKKHAFGGNKASYGKKTQMSILEQRESLPIYKLKEQLVQAVHDNQILIVIGETGSGKTTQITQYLAEAGYTSRGKIGCTQPRRVAAMSVAKRVSEEFGCCLGQEVGYTIRFEDCTSPETVIKYMTDGMLLRECLIDPDLTQYAIIMLDEAHERTIHTDVLFGLLKKTVQKRQDMKLIVTSATLDAVKFSQYFYEAPIFTIPGRTYPVEILYTKEPETDYLDASLITVMQIHLTEPPGDILVFLTGQEEIDTACEILYERMKSLGPDVPELIILPVYSALPSEMQTRIFDPAPPGSRKVVIATNIAETSLTIDGIYYVVDPGFVKQKVYNSKTGIDQLVVTPISQAQAKQRAGRAGRTGPGKCYRLYTERAYRDEMLTTNVPEIQRTNLASTVLSLKAMGINDLLSFDFMDAPPMETLITAMEQLYTLGALDDEGLLTRLGRRMAEFPLEPMLCKMLIMSVHLGCSEEMLTIVSMLSVQNVFYRPKDKQALADQKKAKFHQTEGDHLTLLAVYNSWKNNKFSNPWCYENFIQARSLRRAQDIRKQMLGIMDRHKLDVVSCGKSTVRVQKAICSGFFRNAAKKDPQEGYRTLIDQQVVYIHPSSALFNRQPEWVVYHELVLTTKEYMREVTTIDPRWLVEFAPAFFKVSDPTKLSKQKKQQRLEPLYNRYEEPNAWRISRAFRRR [DHX8]”, the “solubility in G1/S (log2)” value with HeLa Kyoto [1] is -0.655. For the same sequence, the “solubility change mitosis (log2)” value in the data set on HeLa Kyoto [2] is 0.24. Moreover, the figures for the melting temperature in the data set on HeLa Kyoto [3] (cell cycle stage: G1/S) and with HeLa Kyoto [3] (cell cycle stage: mitosis) were 49.9 °C and 50.7 °C, respectively. The thermal stability score in the data set with HeLa Kyoto [4] (setting [5]) is 1.86; in the data set on HeLa Kyoto [4] (cell cycle stage: mitosis) it was 4.58.
